# In publication PMC4683182, “Global Regulator IscR Positively Contributes to Antimonite Resistance and Oxidation in Comamonas testosteroni S44”:
# T1: IscR (His-tagged) (Comamonas testosteroni S44, UniProt A0A0L7MDB4 1-178)
# T1 sequence: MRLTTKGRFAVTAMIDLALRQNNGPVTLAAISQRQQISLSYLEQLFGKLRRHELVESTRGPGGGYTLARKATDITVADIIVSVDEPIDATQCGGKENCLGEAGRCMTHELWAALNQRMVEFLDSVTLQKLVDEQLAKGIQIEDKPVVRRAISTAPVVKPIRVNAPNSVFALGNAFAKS
# Biological target: T1, IscR (His-tagged)
# Assay: EMSA; 100 mM HEPES pH 7.6, 5 mM EDTA, 50 mM (NH4)2SO4, 5 mM DTT, 1% (w/v) Tween 20, 150 mM KCl; 30 min at 30 C; 20 uL; 6% native PAGE, ethidium bromide
# Conditions: protein: recombinant; tags: His-tag (pET-28a(+)); chain copies: 2
row,Binder,binding result
1,Site A 30-bp (dsDNA) DNA 1: CTGTTACCCGACAAAATTGATGGGGAATGT DNA 2: ACATTCCCCATCAATTTTGTCGGGTAACAG,binds
2,Site B* 30-bp (dsDNA) DNA 1: GATGCGCTCGCCTCAAACACTCAACAACAA DNA 2: TTGTTGTTGAGTGTTTGAGGCGAGCGCATC,no binding
3,Site B 30-bp (dsDNA) DNA 1: GATATACTCGCCTCAAACACTCAACAACAA DNA 2: TTGTTGTTGAGTGTTTGAGGCGAGTATATC,binds
4,Site A* 30-bp (dsDNA) DNA 1: CTGTTACCCGACAAAGCTGGCGGGGAATGT DNA 2: ACATTCCCCGCCAGCTTTGTCGGGTAACAG,no binding
